Assays:
[1] = target: HIV integrase fused to the VP16 activation domain (pEF-VP16, CHO cells); experiment: mammalian two-hybrid luciferase reporter assay in CHO cells; conditions: 48 h after transfection; Firefly luciferase normalised to Renilla; parent: est. 1.4; read off a plot
[2] = target: GAL4 DNA binding domain (DBD)-LEDGF IBD fusion (pM1, CHO cells); experiment: two-hybrid; mammalian three-hybrid competition in CHO cells: GAL4 DBD-IBD bait, HIV IN-VP16 prey and a free competitor from pEF-BOS-cyto; Firefly/Renilla luciferase

Substance	response [1]	percent inhibition of the luciferase signal of HIV IN-VP16 with Gal4-IBD [2] [%]
GAL4 DNA binding domain (DBD)-LEDGF IBD fusion (pM1, CHO cells) D366A	0.02	–
GAL4 DNA binding domain (DBD)-LEDGF IBD fusion (pM1, CHO cells) I365A	0.02	–
GAL4 DNA binding domain (DBD)-LEDGF IBD fusion (pM1, CHO cells) K364A	0.08	–
GAL4 DNA binding domain (DBD)-LEDGF IBD fusion (pM1, CHO cells) L363A	0.25	–
GAL4 DNA binding domain (DBD)-LEDGF IBD fusion (pM1, CHO cells) K402A	0.6	–
GAL4 DNA binding domain (DBD)-LEDGF IBD fusion (pM1, CHO cells) F406A	0.04	–
GAL4 DNA binding domain (DBD)-LEDGF IBD fusion (pM1, CHO cells) R405A	1.3	–
free HIV IN (competitor, pEF-BOS-cyto, CHO cells) (enzyme)	–	90
GAL4 DNA binding domain (DBD)-LEDGF IBD fusion (pM1, CHO cells) L368A	0.01	–
GAL4 DNA binding domain (DBD)-LEDGF IBD fusion (pM1, CHO cells) V408A	0.4	–
GAL4 DNA binding domain (DBD)-LEDGF IBD fusion (pM1, CHO cells) K407A	3.3	–
